In US20220098306A1 (Xencor, published 2022):

Tests used:
[1] = biological target: T1, CD28 (antigen of the affinity determinations) (human, UniProt P10747 19-152, limits assumed); test: binding affinity of the CD28 binding domain; method not given
T1 construct: also called human CD28

[2] = biological target: T2, B7H3 (antigen of the affinity statements) (human, UniProt Q5ZPR3 29-466, limits assumed); test: monovalent affinity in 1+1 bsAb format (Example 2B)
T2 construct: also called CD276
T2 sequence (looked up): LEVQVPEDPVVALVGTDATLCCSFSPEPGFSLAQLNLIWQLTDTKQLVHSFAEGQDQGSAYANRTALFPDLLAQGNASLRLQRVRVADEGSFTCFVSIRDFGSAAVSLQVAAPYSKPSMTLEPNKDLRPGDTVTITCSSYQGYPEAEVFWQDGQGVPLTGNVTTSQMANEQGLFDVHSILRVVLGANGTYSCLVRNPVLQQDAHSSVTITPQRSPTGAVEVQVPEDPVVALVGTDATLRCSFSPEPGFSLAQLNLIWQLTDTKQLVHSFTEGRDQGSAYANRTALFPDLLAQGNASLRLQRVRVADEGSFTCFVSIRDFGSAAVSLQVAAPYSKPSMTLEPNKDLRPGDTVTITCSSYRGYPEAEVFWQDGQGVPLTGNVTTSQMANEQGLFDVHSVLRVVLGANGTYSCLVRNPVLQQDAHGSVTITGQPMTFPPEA

B1: XENP34339 (bispecific antibody)
heavy 1: EVQLLESGGGLVQPGGSLRLSCAASGFTFSSYYMSWVRQAPGKGLEWVSTISESGDSTYYADSVKGRFTISRDNSKNTLYLQMNSLRAEDTAVYYCAKSGPGLRQVGFDYWGQGTLVTVSSASTKGPSVFPLAPSSKSTSGGTAALGCLVKDYFPEPVTVSWNSGALTSGVHTFPAVLQSSGLYSLSSVVTVPSSSLGTQTYICNVNHKPSDTKVDKKVEPKSCDKTHTCPPCPAPPVAGPSVFLFPPKPKDTLMISRTPEVTCVVVDVKHEDPEVKFNWYVDGVEVHNAKTKPREEEYNSTYRVVSVLTVLHQDWLNGKEYKCKVSNKALPAPIEKTISKAKGQPREPQVYTLPPSREEMTKNQVSLTCDVSGFYPSDIAVEWESDGQPENNYKTTPPVLDSDGSFFLYSKLTVDKSRWEQGDVFSCSVMHEALHNHYTQKSLSLSPGK
heavy 2: QVQLVQSGAEVKKPGASVKVSCKASGYIFTNNYMHWVRQAPGQGLEWMGIISPSVGRTAYAQKFQGRVTMTRDTSTSTVYMELSSLRSEDTAVYYCARGGGSSPRLDYWGQGTLVTVSSASTKGPSVFPLAPSSKSTSGGTAALGCLVKDYFPEPVTVSWNSGALTSGVHTFPAVLQSSGLYSLSSVVTVPSSSLGTQTYICNVNHKPSNTKVDKKVEPKSCGKPGSGKPGSQVQLVQSGAEVKKPGASVKVSCKASGYIFTNNYMHWVRQAPGQGLEWMGIISPSVGRTAYAQKFQGRVTMTRDTSTSTVYMELSSLRSEDTAVYYCARGGGSSPRLDYWGQGTLVTVSSASTKGPSVFPLAPSSKSTSGGTAALGCLVKDYFPEPVTVSWNSGALTSGVHTFPAVLQSSGLYSLSSVVTVPSSSLGTQTYICNVNHKPSNTKVDKKVEPKSCDKTHTCPPCPAPPVAGPSVFLFPPKPKDTLMISRTPEVTCVVVDVKHEDPEVKFNWYVDGVEVHNAKTKPREEQYNSTYRVVSVLTVLHQDWLNGKEYKCKVSNKALPAPIEKTISKAKGQPREPQVYTLPPSREQMTKNQVKLTCLVKGFYPSDIAVEWESNGQPENNYKTTPPVLDSDGSFFLYSKLTVDKSRWQQGNVFSCSVMHEALHNHYTQKSLSLSPGK
light: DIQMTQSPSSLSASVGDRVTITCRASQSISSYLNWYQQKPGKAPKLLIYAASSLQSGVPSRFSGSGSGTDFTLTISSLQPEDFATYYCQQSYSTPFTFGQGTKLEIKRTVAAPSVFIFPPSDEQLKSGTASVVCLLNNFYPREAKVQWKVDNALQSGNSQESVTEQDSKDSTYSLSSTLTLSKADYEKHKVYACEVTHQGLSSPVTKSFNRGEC
notes: 2+1 CLC format; also called B7H3 x CD28 bsAb in 2+1 CLC format; copies: 1 + 1 + 3
**Q.** Which Kd [1] does the source give for B1 here?
**A.** 77 nM

B2: XENP35611 (bispecific antibody)
heavy 1: EVQLLESGGGLVQPGGSLRLSCAASGFTFSSYAMSWVRQAPGKGLEWVSTISGSGDSTYYADSVKGRFTISRDNSKNTLYLQMNSLRAEDTAVYYCAKSGPGLRQVGFDYWGQGTLVTVSSASTKGPSVFPLAPSSKSTSGGTAALGCLVKDYFPEPVTVSWNSGALTSGVHTFPAVLQSSGLYSLSSVVTVPSSSLGTQTYICNVNHKPSDTKVDKKVEPKSCDKTHTCPPCPAPPVAGPSVFLFPPKPKDTLMISRTPEVTCVVVDVKHEDPEVKFNWYVDGVEVHNAKTKPREEEYNSTYRVVSVLTVLHQDWLNGKEYKCKVSNKALPAPIEKTISKAKGQPREPQVYTLPPSREEMTKNQVSLTCDVSGFYPSDIAVEWESDGQPENNYKTTPPVLDSDGSFFLYSKLTVDKSRWEQGDVFSCSVMHEALHNHYTQKSLSLSPGK
heavy 2: QVQLVQSGAEVKKPGASVKVSCKASGYIFTNNYMHWVRQAPGQGLEWMGIISPSVGRTAYAQKFQGRVTMTRDTSTSTVYMELSSLRSEDTAVYYCARGGGSSPRLDYWGQGTLVTVSSASTKGPSVFPLAPSSKSTSGGTAALGCLVKDYFPEPVTVSWNSGALTSGVHTFPAVLQSSGLYSLSSVVTVPSSSLGTQTYICNVNHKPSNTKVDKKVEPKSCGKPGSGKPGSQVQLVQSGAEVKKPGASVKVSCKASGYIFTNNYMHWVRQAPGQGLEWMGIISPSVGRTAYAQKFQGRVTMTRDTSTSTVYMELSSLRSEDTAVYYCARGGGSSPRLDYWGQGTLVTVSSASTKGPSVFPLAPSSKSTSGGTAALGCLVKDYFPEPVTVSWNSGALTSGVHTFPAVLQSSGLYSLSSVVTVPSSSLGTQTYICNVNHKPSNTKVDKKVEPKSCDKTHTCPPCPAPPVAGPSVFLFPPKPKDTLMISRTPEVTCVVVDVKHEDPEVKFNWYVDGVEVHNAKTKPREEQYNSTYRVVSVLTVLHQDWLNGKEYKCKVSNKALPAPIEKTISKAKGQPREPQVYTLPPSREQMTKNQVKLTCLVKGFYPSDIAVEWESNGQPENNYKTTPPVLDSDGSFFLYSKLTVDKSRWQQGNVFSCSVMHEALHNHYTQKSLSLSPGK
light: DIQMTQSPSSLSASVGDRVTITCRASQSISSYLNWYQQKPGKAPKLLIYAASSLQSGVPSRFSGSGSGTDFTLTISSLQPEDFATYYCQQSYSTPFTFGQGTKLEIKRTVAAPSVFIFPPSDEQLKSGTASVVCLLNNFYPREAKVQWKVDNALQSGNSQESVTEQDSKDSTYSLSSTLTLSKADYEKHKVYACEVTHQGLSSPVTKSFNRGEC
notes: 2+1 CLC format; copies: 1 + 1 + 3
**Q.** For B2, which Kd [1] is on record?
**A.** 610 nM

B3: XENP34336 (bispecific antibody)
heavy 1: EVQLLESGGGLVQPGGSLRLSCAASGFTFSSYYMSWVRQAPGKGLEWVSTISESGDSTYYADSVKGRFTISRDNSKNTLYLQMNSLRAEDTAVYYCAKSGPGLRQVGFDYWGQGTLVTVSSASTKGPSVFPLAPSSKSTSGGTAALGCLVKDYFPEPVTVSWNSGALTSGVHTFPAVLQSSGLYSLSSVVTVPSSSLGTQTYICNVNHKPSDTKVDKKVEPKSCDKTHTCPPCPAPPVAGPSVFLFPPKPKDTLMISRTPEVTCVVVDVKHEDPEVKFNWYVDGVEVHNAKTKPREEEYNSTYRVVSVLTVLHQDWLNGKEYKCKVSNKALPAPIEKTISKAKGQPREPQVYTLPPSREEMTKNQVSLTCDVSGFYPSDIAVEWESDGQPENNYKTTPPVLDSDGSFFLYSKLTVDKSRWEQGDVFSCSVMHEALHNHYTQKSLSLSPGK
heavy 2: QVQLVQSGAEVKKPGASVKVSCKASGYIFTNHYMHWVRQAPGQGLEWMGIISPSAGSTDYAQKFQGRVTMTRDTSTSTVYMELSSLRSEDTAVYYCARGGGSSPRLDYWGQGTLVTVSSASTKGPSVFPLAPSSKSTSGGTAALGCLVKDYFPEPVTVSWNSGALTSGVHTFPAVLQSSGLYSLSSVVTVPSSSLGTQTYICNVNHKPSNTKVDKKVEPKSCGKPGSGKPGSQVQLVQSGAEVKKPGASVKVSCKASGYIFTNHYMHWVRQAPGQGLEWMGIISPSAGSTDYAQKFQGRVTMTRDTSTSTVYMELSSLRSEDTAVYYCARGGGSSPRLDYWGQGTLVTVSSASTKGPSVFPLAPSSKSTSGGTAALGCLVKDYFPEPVTVSWNSGALTSGVHTFPAVLQSSGLYSLSSVVTVPSSSLGTQTYICNVNHKPSNTKVDKKVEPKSCDKTHTCPPCPAPPVAGPSVFLFPPKPKDTLMISRTPEVTCVVVDVKHEDPEVKFNWYVDGVEVHNAKTKPREEQYNSTYRVVSVLTVLHQDWLNGKEYKCKVSNKALPAPIEKTISKAKGQPREPQVYTLPPSREQMTKNQVKLTCLVKGFYPSDIAVEWESNGQPENNYKTTPPVLDSDGSFFLYSKLTVDKSRWQQGNVFSCSVMHEALHNHYTQKSLSLSPGK
light: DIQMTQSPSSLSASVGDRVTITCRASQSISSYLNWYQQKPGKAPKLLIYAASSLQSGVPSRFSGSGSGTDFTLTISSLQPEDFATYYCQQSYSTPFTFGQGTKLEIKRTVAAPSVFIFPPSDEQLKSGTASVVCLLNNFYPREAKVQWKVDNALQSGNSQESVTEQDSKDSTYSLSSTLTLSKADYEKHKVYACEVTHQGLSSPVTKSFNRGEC
notes: as for B2
**Q.** Which Kd [1] does the source give for B3 here?
**A.** 440 nM

B4: XENP35612 (bispecific antibody)
heavy 1: EVQLLESGGGLVQPGGSLRLSCAASGFTFSSYYMSWVRQAPGKGLEWVSTISGSGDSTYYADSVKGRFTISRDNSKNTLYLQMNSLRAEDTAVYYCAKSGPGLRQVGFDYWGQGTLVTVSSASTKGPSVFPLAPSSKSTSGGTAALGCLVKDYFPEPVTVSWNSGALTSGVHTFPAVLQSSGLYSLSSVVTVPSSSLGTQTYICNVNHKPSDTKVDKKVEPKSCDKTHTCPPCPAPPVAGPSVFLFPPKPKDTLMISRTPEVTCVVVDVKHEDPEVKFNWYVDGVEVHNAKTKPREEEYNSTYRVVSVLTVLHQDWLNGKEYKCKVSNKALPAPIEKTISKAKGQPREPQVYTLPPSREEMTKNQVSLTCDVSGFYPSDIAVEWESDGQPENNYKTTPPVLDSDGSFFLYSKLTVDKSRWEQGDVFSCSVMHEALHNHYTQKSLSLSPGK
heavy 2: QVQLVQSGAEVKKPGASVKVSCKASGYIFTNNYMHWVRQAPGQGLEWMGIISPSVGRTAYAQKFQGRVTMTRDTSTSTVYMELSSLRSEDTAVYYCARGGGSSPRLDYWGQGTLVTVSSASTKGPSVFPLAPSSKSTSGGTAALGCLVKDYFPEPVTVSWNSGALTSGVHTFPAVLQSSGLYSLSSVVTVPSSSLGTQTYICNVNHKPSNTKVDKKVEPKSCGKPGSGKPGSQVQLVQSGAEVKKPGASVKVSCKASGYIFTNNYMHWVRQAPGQGLEWMGIISPSVGRTAYAQKFQGRVTMTRDTSTSTVYMELSSLRSEDTAVYYCARGGGSSPRLDYWGQGTLVTVSSASTKGPSVFPLAPSSKSTSGGTAALGCLVKDYFPEPVTVSWNSGALTSGVHTFPAVLQSSGLYSLSSVVTVPSSSLGTQTYICNVNHKPSNTKVDKKVEPKSCDKTHTCPPCPAPPVAGPSVFLFPPKPKDTLMISRTPEVTCVVVDVKHEDPEVKFNWYVDGVEVHNAKTKPREEQYNSTYRVVSVLTVLHQDWLNGKEYKCKVSNKALPAPIEKTISKAKGQPREPQVYTLPPSREQMTKNQVKLTCLVKGFYPSDIAVEWESNGQPENNYKTTPPVLDSDGSFFLYSKLTVDKSRWQQGNVFSCSVMHEALHNHYTQKSLSLSPGK
light: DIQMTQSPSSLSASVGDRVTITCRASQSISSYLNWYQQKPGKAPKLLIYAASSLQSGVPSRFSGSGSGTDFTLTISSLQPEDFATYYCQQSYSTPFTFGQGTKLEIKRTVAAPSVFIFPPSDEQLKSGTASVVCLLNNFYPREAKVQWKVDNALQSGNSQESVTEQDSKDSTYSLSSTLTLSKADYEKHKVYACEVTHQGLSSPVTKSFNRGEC
notes: as for B2
**Q.** For B4, which Kd [1] is on record?
**A.** 270 nM

B5: XENP35151 (bispecific antibody)
heavy: EVQLVESGGGLVKPGGSLRLSCAASGFSFSVGYYMCWVRQAPGKGLEWVSCIYVGSGSSGSTYYASVKGRFTISSDTAKTSVYLQMNSLRAEDTAVYFCARTAGSDWRLDLWGQGTLVTVSSASTKGPSVFPLAPSSKSTSGGTAALGCLVKDYFPEPVTVSWNSGALTSGVHTFPAVLQSSGLYSLSSVVTVPSSSLGTQTYICNVNHKPSDTKVDKKVEPKSCDKTHTCPPCPAPPVAGPSVFLFPPKPKDTLMISRTPEVTCVVVDVKHEDPEVKFNWYVDGVEVHNAKTKPREEEYNSTYRVVSVLTVLHQDWLNGKEYKCKVSNKALPAPIEKTISKAKGQPREPQVYTLPPSREEMTKNQVSLTCDVSGFYPSDIAVEWESDGQPENNYKTTPPVLDSDGSFFLYSKLTVDKSRWEQGDVFSCSVLHEALHSHYTQKSLSLSPGK
scFv-Fc: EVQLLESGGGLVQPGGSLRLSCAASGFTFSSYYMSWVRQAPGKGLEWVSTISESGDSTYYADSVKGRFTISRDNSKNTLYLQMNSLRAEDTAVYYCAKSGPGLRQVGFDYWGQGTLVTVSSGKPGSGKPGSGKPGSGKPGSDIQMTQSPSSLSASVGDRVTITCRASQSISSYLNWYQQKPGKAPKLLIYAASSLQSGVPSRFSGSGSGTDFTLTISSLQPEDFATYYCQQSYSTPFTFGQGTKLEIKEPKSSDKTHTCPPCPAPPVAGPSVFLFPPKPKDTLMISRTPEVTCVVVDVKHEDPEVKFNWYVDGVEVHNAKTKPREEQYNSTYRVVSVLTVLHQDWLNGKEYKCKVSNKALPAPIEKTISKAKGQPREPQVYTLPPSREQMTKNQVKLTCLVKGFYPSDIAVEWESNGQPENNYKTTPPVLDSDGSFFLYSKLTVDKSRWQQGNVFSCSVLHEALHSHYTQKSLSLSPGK
light: DIVMTQSPSSLSASVGDRVTITCRASQSIANELSWYQQKPGKPPKLLIYRASTLTSGVPSRFKGSGSGTDFTLTISSLQPEDFATYYCQSTYNGRAIGFGGGTKVEIKRTVAAPSVFIFPPSDEQLKSGTASVVCLLNNFYPREAKVQWKVDNALQSGNSQESVTEQDSKDSTYSLSSTLTLSKADYEKHKVYACEVTHQGLSSPVTKSFNRGEC
notes: 1+1 Fab-scFv-Fc; copies: 1 + 1 + 1
**Q.** Does B5 bind [2]?
**A.** binds
